Data on twelve molecules can be found in patent publication US20250361295A1 (ANTENGENE BIOLOGICS, published 2025).

B1: ch2-H1-D7-E5-D5 (antibody, V domains shown)
VH: EVHLVESGGGLVQPGGSRKLSCAASGFTFSSFGMHWVRQPPEKGLEWVAYISSGSSSIYYADTVKGRFTISRDNPKNTLFLQMTSLRSEDTAMYYCARGTGTGAMDYWGQGTSVTVSS
VL: DIQMTQTTSSLSASLGDRVTISCRTSQDISNYLNWYQQKPDGTVKLLIYYTSKLHSGVPSRFSGSGSGTDYSLTISNLDQEDIATYFCQQGNTLPWTFGGGTKLEIK
B2: ch25-E7-A10-H6 (antibody, V domains shown)
VH: B1 VH with H3Q, S31T, P40A, S57T, G99S
VL: B1 VL with T25A, N31K, K53R, D79E
B3: ch26-H9-B9-B7 (antibody, V domains shown)
VH: B1 VH with H3Q, L4R, P40A, S57T, G99S, T100D, T102K
VL: B1 VL with Q3V, T7S, T25A, K53R, D79E
B4: ch10-H9-E3-G3 (antibody, V domains shown)
VH: B1 VH with H3Q, L4R, P40A, S57A, I58M, G99S, T100D, T102K
VL: B1 VL with T25A, I48V, K53R, D79E
B5: ch27-F11-E10-G10 (antibody, V domains shown)
VH: B1 VH with H3Q, P40A, S57T, T69S, Y94F, G99S
VL: B1 VL with T25A, K53R, D79E, I106L
B6: ch27-D11-C2-A10 (antibody, V domains shown)
VH: B1 VH with H3Q, S31V, M34V, P40A, S56N, S57T, Y59H, N74I, G99S, T100S
VL: B1 VL with T7S, T20S, T25A, T43A, K53R, I106L
B7: ch27-G5-E9-B8 (antibody, V domains shown)
VH: B1 VH with H3Q, P40A, S57T, G99S
VL: B1 VL with R18S, I21F, T25A, Y49S, K53R, D79E, T93A
B8: ch42-C8-A12-F3-D11 (antibody, V domains shown)
VH: EVHLVESGGDLVKPGGSLKLSCAASGFTFSSHGMSWVRQTPDKRLEWVATISSGGIYTYHPDSVKGRFSISRDNAKKTLYLQMSSLKSEDTGIYYCTRGQVGNWYFDVWGAGTTVTVSS
VL: DIVITQSPAIMSASPGEKVTINCSASSSVSYMHWFQQTPGTSPKLWIYSTSNLASGVPARFSGSGSGTFYSLTISRMEAEDAATYYCQQRSSYPLTFGAGTKLELK
B9: ch25-G9-G4-C12 (antibody, V domains shown)
VH: B8 VH with H3Q, S52N, I56Y, H60Y, S69T, K77N, G92A, I93M, T97A, V101L
VL: B8 VL with I4M, N22T, T38K, F69S
B10: ch7-B4-C1-C9 (antibody, V domains shown)
VH: EVQLQQSGTELVKPGASVKLSCKASGYTFTNYWMHWVKQRPGQGLEWIGEINPSNGRTNYNEKFKTKATLTVDKSSSTAYMQLSSLTSEDSAVYYCARSTYYGYDWYFDVWGAGTTVTVSS
VL: DIVLTQSPSSMYASLGERVTITCKASQDINSYLSWFQQKPGKSPKTLIYRANRLLDGVPSRFSGGGSGQDYSLTISSLEHEDMGIYYCLQCDEFPHTFGGGTKLEIK
B11: ch4-E6-E4-B12 (antibody, V domains shown)
VH: EVQLKESGAELVKPGASVKLSCKASGYTFTSHWMHWVKQRPGQGLEWIGEINPSNGRTNYNEKFTSKATLTVDQSSSTAYMQLSSLTSEDSAVYYCARGNLTTVVPFDYWGQGTALTVSS
VL: DIVMTQSPSSLSASLGGKVTITCKASQDINKFIAWYQHKPGKGPRLLIHFTSTLQPGIPSRFSGSGSGRDYSFSISNLEPEDIATYFCLQYDLLLTFGGGTKLEIK
B12: IO-202 (antibody, V domains shown)
VH: EVQLLESGGGLVQPGGSLRLSCAASGIDFSNHYYMYWVRQAPGKGLEWIGSIFSGDSASTYYADSAKGRFTISRDNSKNTLYLQMNSLRAEDTAVYYCARGMSTNDWASDLWGQGTLVTVSS
VL: DIQMTQSPSSLSASVGDRVTITCQASESINSIYLAWYQQKPGKAPKLLIYRASTLASGVPSRFSGSGSGTDFTLTISSLQPEDFATYYCQQSYDWGDVENTFGGGTKVEIK

Residue numbers refer to the chain shown, from its start.

For one assay, the target named is T1, human LILRA6 protein (human, UniProt Q6PI73 24-447, limits assumed).
T1 construct: protein for ELISA; construct not described; also called hLILRA6 protein
T1 sequence (Q6PI73 24-447 limits assumed): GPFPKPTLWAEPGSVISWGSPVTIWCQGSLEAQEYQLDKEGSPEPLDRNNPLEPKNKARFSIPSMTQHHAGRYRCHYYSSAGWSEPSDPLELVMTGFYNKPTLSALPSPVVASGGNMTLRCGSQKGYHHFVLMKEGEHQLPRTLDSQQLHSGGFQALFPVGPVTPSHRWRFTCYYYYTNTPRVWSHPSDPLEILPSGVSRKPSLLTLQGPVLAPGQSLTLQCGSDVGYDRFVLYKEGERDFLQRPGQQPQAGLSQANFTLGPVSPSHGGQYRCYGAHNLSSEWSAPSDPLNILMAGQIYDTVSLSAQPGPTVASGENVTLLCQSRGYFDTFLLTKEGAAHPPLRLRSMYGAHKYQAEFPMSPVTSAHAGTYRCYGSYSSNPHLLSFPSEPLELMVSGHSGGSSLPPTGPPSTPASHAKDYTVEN
The experiment in a line: ELISA, LILRA6 protein. (In general: In an ELISA, binding on a coated surface is turned into a signal by an enzyme label.)
With B1, the binding result is “no binding”.
On the same count and under the same terms, the result for B2 reads “no binding”.
Take B3: the binding result was “no binding”.
Still for that read-out and setting: the result for B4 reads “no binding”; that for B5, “no binding”.
Same read-out and setting: the result for B6 reads “no binding”.
The same measure, in the same setting: the entry for B7 is “no binding”.
Regarding B8, the “ELISA(OD450)” value turned out to be 0.32 OD450.
On to B9, for which the “ELISA(OD450)” value was found to be 0.687 OD450.
B10: the binding result is “no binding”.
For B11, the “ELISA(OD450)” value was 0.353 OD450.
With B12, the “ELISA(OD450)” value was determined as 0.157 OD450.

For a further assay, the target named is T2, human LILRB4 (human, UniProt Q8NHJ6 22-448). The experiment in a line: cell-based or functional assay.
As for B1, the “EC50 (nM), ADCC on THP-1 cells” value was found to be 7.34 nM and the “Max cell cytotoxicity (%), ADCC on THP-1 cells” value (shortened to “Max cell cytotoxicity (%), ADCC”) is 39.6%.
As to B2, the “Max cell cytotoxicity (%), ADCC” value came to 11.7%.
On the same count and under the same terms, the figure for B3 is 15.2%; for B4 it is 16.6%; for B5 it is 18.7%.
Turning to B6, the “Max cell cytotoxicity (%), ADCC” value came to 20.2%.
On the same count and under the same terms, the figure for B7 is 16.4%; for B8 it is 14.5%.
Still for that read-out and setting: the figure for B9 is 11%.
Same read-out and setting: the figure for B10 is 13.9%; for B11 it is 14.6%.
Turning to B12, the “EC50 (nM), ADCC on THP-1 cells” value was 248 nM and the “Max cell cytotoxicity (%), ADCC” value is 13.9%.

For another assay, the target named is T2, human LILRB4. Put plainly: cell-based or functional assay. This is another data set of the same source.
For B1, the “ADCP (%) at 133.3 nM, macrophages and MV-4-11 cells” value (shortened to “ADCP (%) at 133.3 nM”) is 27.9%.
On the same count and under the same terms, the figure for B2 is 11%.
On the same count and under the same terms, the figure for B3 is 16.1%; for B4 it is 13.7%; for B5 it is 16.3%.
B6: the “ADCP (%) at 133.3 nM” value amounted to 12.1%.
Same read-out and setting: the result for B7 reads 14.8%; that for B8, 20.4%.
On the same count and under the same terms, the figure for B9 is 24.2%; for B10 it is 11.8%.
Consider B11, for which the “ADCP (%) at 133.3 nM” value came to 14.1%.
As for B12, the “ADCP (%) at 133.3 nM” value worked out at 21.8%.

A further assay deals with T2, human LILRB4. Put plainly: cell-based or functional assay. This is another data set of the same source.
For B1, the “FcγR stimulation (TNF-α, pg/mL)” value came out at 325 pg/mL and the “Fold change (Compared to isotype)” value stood at 10.3 fold.
On the same counts, the results for B2 are 390 pg/mL and 12.3 fold.
With B3, the “FcγR stimulation (TNF-α, pg/mL)” value was 547 pg/mL and the “Fold change (Compared to isotype)” value came out at 17.3 fold.
Regarding B4, the “FcγR stimulation (TNF-α, pg/mL)” value turned out to be 389 pg/mL and the “Fold change (Compared to isotype)” value turned out to be 12.3 fold.
On the same counts, the results for B5 are 393 pg/mL and 12.4 fold.
On the same counts, the results for B6 are 666 pg/mL and 21.1 fold.
On the same counts, the results for B7 are 394 pg/mL and 12.5 fold.
As to B8, the “FcγR stimulation (TNF-α, pg/mL)” value is 308 pg/mL and the “Fold change (Compared to isotype)” value turned out to be 9.73 fold.
For B9, the “FcγR stimulation (TNF-α, pg/mL)” value was determined as 356 pg/mL and the “Fold change (Compared to isotype)” value was determined as 11.3 fold.
On the same counts, the results for B10 are 415 pg/mL and 13.1 fold.
In the case of B11, the “FcγR stimulation (TNF-α, pg/mL)” value was determined as 266 pg/mL and the “Fold change (Compared to isotype)” value amounted to 8.43 fold.
On the same counts, the results for B12 are 238 pg/mL and 7.52 fold.

The target of the next assay is T3, human LILRB3 (human, UniProt O75022 24-631).
T3 construct: whole, on cells; also called hLILRB3
T3 sequence (O75022 24-631): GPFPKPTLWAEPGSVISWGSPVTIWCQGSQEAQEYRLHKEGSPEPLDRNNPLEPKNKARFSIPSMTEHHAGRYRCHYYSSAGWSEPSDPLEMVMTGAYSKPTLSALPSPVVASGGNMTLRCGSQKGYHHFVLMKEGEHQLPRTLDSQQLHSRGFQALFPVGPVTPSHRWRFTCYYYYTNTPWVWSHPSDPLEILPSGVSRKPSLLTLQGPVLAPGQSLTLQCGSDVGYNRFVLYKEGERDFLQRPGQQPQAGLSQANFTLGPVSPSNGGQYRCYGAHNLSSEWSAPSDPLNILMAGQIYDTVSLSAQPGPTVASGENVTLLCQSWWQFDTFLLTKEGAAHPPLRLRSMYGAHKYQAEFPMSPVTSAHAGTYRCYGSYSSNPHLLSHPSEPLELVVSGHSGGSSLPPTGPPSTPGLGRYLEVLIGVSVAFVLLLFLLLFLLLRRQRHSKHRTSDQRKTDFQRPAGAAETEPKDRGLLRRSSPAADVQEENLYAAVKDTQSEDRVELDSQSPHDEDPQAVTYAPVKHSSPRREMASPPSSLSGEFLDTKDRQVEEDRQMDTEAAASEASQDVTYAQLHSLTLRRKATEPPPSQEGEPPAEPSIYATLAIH
The experiment in a line: FACS, 293F-hLILRB3 cells. The procedure:
(§1) The protocol for FACS analysis is described as follows: [0438] (a) Cells were harvested by centrifugation at 300 g for 3 mins. […] (b) The cells were washed for 2 times with FACS buffer by centrifuging at 300 g for 3 mins and the supernatant was discarded. [0440] (c) Cell were resuspended and seeded into assay plate (2×10⁵ cells/well) in 50 μl FACS buffer. […] Cells were incubated with antibodies at 4° C. for 1 hour. […] (d) Step (b) was repeated and the cells were resuspended with 100 μl diluted 2nd antibody, incubated at 4° C. for 1 hour in the dark. [0442] (e) Step (b) was repeated and the cells were resuspended with 100 μl FACS buffer. The cells were kept in dark for FACS analysis.
(In general: In flow cytometry, cells or beads pass a laser one at a time.)
Consider B1, for which the binding result was “no binding (tested: up to 66.67 nM)”.
Still for that read-out and setting: the entry for B2 is “no binding (tested: up to 66.67 nM)”; for B3 it is “no binding (tested: up to 66.67 nM)”.
The same measure, in the same setting: the result for B4 reads “no binding (tested: up to 66.67 nM)”; that for B5, “no binding (tested: up to 66.67 nM)”; that for B6, “no binding (tested: up to 66.67 nM)”.
On the same count and under the same terms, the entry for B7 is “no binding (tested: up to 66.67 nM)”.
The molecule B8 displayed an EC50 of 12.8 nM.
In the case of B9, the binding result is recorded as “no binding (tested: up to 66.67 nM)”.
The same measure, in the same setting: the result for B10 reads “no binding (tested: up to 66.67 nM)”; that for B11, “no binding (tested: up to 66.67 nM)”; that for B12, “no binding (tested: up to 66.67 nM)”.

The next assay addresses T2, human LILRB4. The experiment in a line: FACS, 293F-hLILRB4 cells. The procedure: as §1
For the molecule B1, the EC50 was found to be 1.6 nM and the “Max MFI” value was 38300 MFI.
As for B2, the EC50 was 1.4 nM and the “Max MFI” value came out at 45000 MFI.
On the same counts, the results for B3 are 1.66 nM and 46000 MFI.
On to B4, for which the EC50 is 1.41 nM and the “Max MFI” value was 45200 MFI.
Consider B5, for which a half-maximal effect (EC50) was put at 1.52 nM and the “Max MFI” value came to 46200 MFI.
For B6, the EC50 came out at 1.43 nM and the “Max MFI” value stood at 46800 MFI.
Regarding B7, the response was half-maximal at 1.75 nM (EC50) and the “Max MFI” value was 44300 MFI.
On the same counts, the results for B8 are 1.36 nM and 48400 MFI.
On the same counts, the results for B9 are 1.55 nM and 43300 MFI.
On the same counts, the results for B10 are 0.54 nM and 47300 MFI.
Take B11: a half-maximal effect (EC50) was put at 1.09 nM and the “Max MFI” value worked out at 54500 MFI.
As to B12, the response was half-maximal at 0.016 nM (EC50) and the “Max MFI” value was found to be 39700 MFI.

The EC50 is the concentration that produces a half-maximal response. A lower EC50 goes with greater potency.
